# T1: CD97 (ADGRE5) isoform 1 ectodomain, purified and biotinylated (human, UniProt P48960 21-552, limits assumed, biotinylated in vitro using the BirA enzyme)
# T1 construct: the whole entry for isoform 1 is named here; also called CD97 isoform 1; Biotinylated CD97 isoform 1
# T1 sequence: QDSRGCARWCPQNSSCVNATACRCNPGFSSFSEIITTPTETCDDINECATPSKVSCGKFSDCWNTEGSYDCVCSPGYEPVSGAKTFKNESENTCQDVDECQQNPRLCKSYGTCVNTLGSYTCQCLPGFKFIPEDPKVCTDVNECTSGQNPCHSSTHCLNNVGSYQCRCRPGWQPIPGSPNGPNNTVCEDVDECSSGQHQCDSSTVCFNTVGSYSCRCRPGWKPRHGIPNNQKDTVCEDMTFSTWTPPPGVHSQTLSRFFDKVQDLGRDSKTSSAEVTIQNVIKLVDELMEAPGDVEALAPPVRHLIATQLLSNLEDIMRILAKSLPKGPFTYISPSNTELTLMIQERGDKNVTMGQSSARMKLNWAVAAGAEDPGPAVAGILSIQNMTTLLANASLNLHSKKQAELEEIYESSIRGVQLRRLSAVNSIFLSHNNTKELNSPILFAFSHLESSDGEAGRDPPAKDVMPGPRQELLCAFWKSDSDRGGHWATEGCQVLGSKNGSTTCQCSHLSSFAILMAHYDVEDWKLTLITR
# T2: CD97 (ADGRE5) isoform 2 ectodomain, purified and biotinylated (human, UniProt P48960 21-552, biotinylated in vitro using the BirA enzyme)
# T2 construct: the whole entry for isoform 2 is named here; also called CD97 isoform 2
# T2 sequence: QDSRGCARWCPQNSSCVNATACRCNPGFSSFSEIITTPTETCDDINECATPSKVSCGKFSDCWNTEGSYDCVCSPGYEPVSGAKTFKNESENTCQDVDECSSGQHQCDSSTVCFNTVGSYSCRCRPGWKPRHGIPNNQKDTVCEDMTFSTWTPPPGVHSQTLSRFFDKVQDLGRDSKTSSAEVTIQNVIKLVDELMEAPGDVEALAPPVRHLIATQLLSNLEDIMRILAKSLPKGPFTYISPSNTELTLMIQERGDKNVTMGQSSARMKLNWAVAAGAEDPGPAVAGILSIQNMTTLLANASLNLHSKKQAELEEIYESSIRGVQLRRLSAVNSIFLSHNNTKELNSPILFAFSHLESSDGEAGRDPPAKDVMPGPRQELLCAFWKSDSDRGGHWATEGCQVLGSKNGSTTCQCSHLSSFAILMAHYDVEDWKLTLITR
# T3: CD97 GAIN mutant T524K expressed on ExpiCHO cells (human, UniProt P48960 21-835)
# T3 construct: numbering of isoform 1; whole entry named
# T3 sequence: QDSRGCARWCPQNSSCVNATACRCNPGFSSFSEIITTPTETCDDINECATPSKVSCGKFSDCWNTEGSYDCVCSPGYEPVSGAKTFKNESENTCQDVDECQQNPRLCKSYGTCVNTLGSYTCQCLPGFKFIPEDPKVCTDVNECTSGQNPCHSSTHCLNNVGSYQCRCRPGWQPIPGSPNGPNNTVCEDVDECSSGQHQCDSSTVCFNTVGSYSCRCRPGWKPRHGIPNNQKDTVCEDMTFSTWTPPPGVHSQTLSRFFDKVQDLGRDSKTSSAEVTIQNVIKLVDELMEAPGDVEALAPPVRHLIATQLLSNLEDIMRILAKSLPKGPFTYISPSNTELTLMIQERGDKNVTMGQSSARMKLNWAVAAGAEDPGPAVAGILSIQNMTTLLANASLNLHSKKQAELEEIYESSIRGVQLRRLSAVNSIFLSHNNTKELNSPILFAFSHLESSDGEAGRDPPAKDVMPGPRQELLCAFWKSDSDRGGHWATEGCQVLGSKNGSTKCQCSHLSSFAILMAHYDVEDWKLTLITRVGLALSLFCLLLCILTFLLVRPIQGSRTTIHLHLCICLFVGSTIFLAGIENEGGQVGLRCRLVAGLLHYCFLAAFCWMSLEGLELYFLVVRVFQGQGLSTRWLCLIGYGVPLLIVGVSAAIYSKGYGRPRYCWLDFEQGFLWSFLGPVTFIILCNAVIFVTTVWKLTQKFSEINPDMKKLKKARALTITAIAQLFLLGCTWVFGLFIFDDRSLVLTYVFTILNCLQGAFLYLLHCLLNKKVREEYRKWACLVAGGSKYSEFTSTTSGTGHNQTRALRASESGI
# B1: Antibody clone A8, Fab format (Fab, V domains shown)
# VH: EVQLVESGGGLVQPGGSLRLSCAASGFTISSYSIHWVRQAPGKGLEWVASISPYYGSTSYADSVKGRFTISADTSKNTAYLQMNSLRAEDTAVYYCARSWYYYEQNPYWYQKEEQALDYWGQGTLVTVSS
# VL: DIQMTQSPSSLSASVGDRVTITCRASQSVSSAVAWYQQKPGKAPKLLIYSASSLYSGVPSRFSGSRSGTDFTLTISSLQPEDFATYYCQQSVYSPVTFGQGTKVEIKR
# notes: Fab; also called wild type A8
# Columns and labels:
# [1] = molecular target: T1, CD97 (ADGRE5) isoform 1 ectodomain, …; test: bead-based binding titration (biotinylated antigen on streptavidin beads, flow cytometry), 1:1 fit
# [2] = molecular target: T2, CD97 (ADGRE5) isoform 2 ectodomain, …; test: as above
# [3] = molecular target: T1, CD97 (ADGRE5) isoform 1 ectodomain, …; test: bead-based binding assay: biotinylated CD97 isoform 1 on streptavidin beads, Fab titrated, flow cytometry MFI, 1:1 fit; EXPERIMENT 2
# Protocol: (§1) KD values were determined from the curve fitting of a 1:1 binding model.
# [4] = molecular target: T3, CD97 GAIN mutant T524K expressed on …; test: cell-based binding assay: CD97 GAIN mutant T524K transiently expressed on ExpiCHO cells, A8 Fab titrated, flow cytometry MFI; lower panel
# Protocol: as §1
# [5] = molecular target: T1, CD97 (ADGRE5) isoform 1 ectodomain, …; test: bead-based binding assay: biotinylated CD97 isoform 1 on streptavidin beads, Fab titrated, flow cytometry MFI, 1:1 fit; EXPERIMENT 1
# Protocol: as §1
binder,measurement,setting,value
B1,Kd,[1],2.4 nM
same,Kd,[2],2.2 nM
same,Kd,[3],9.5 nM
same,binding result,[4],no binding (tested: 1000 nM)
same,Kd,[5],16 nM

# Source: US20250051474A1, “ANTI-CD97 ANTIBODIES AND ANTIBODY-DRUG CONJUGATES” (New York University, priority 2023, published 2025)
